In patent publication EP4269424A1, “NOVEL ANTIVIRAL COMPOUNDS AND USE THEREOF” (priority 2022, dated 2023):

Molecular target: G3BP1 (human), Q13283
Experiment: ITC at 25 °C, peptide titrated into G3BP1

Sequence of G3BP1 (human), Q13283 (Q13283 1-139 limits assumed): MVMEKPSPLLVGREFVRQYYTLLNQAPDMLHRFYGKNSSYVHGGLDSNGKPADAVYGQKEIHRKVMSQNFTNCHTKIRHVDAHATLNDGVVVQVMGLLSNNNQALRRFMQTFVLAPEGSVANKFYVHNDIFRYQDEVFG

LTFGDFDEHEVDALASGITFGDFDDW (modifications not checked) [G3BPi WT peptide without CPP]
Kd: 3.6 µM
